# Test results as given in US20220267427A1 (SYSMEX, published 2022).
# Where no end group is shown, it is not given here. The star is where a group is joined. Biotin = O=C1N[C@H]2[C@H](CS[C@H]2CCCCC(=O)*)N1
# B1: K18-328 antibody (antibody, V domains shown)
# VH: QVHLQQSAAELARPGASVKMSCKASGYTFTNYTIHWIKQRPGQGLEWIGYINPSSGYTDYNQNFKDKTTLTADKSSTTVYMQLSSLTSEDSAVYYCARQIPFAYWGQGTLVTVSA
# VL: not shown
# notes: Mouse monoclonal antibody from a hybridoma (immunogen full length rCK18)
# B2: K18-624 antibody (antibody, V domains shown)
# VH: DVQLVESGGGLVQPGGSRKLSCAASGFTFSSFGMHWVRQAPEKGLEWVAYISSGSTTIYYADTVKGRFTISRDNPKNTLFLQMTSLRSEDTAMYYCARRGMITTGAWFAYWGQGTLVTVSA
# VL: DILLTQSPAILSVSPGERVSFSCRASQRIGTSIHWYQQRTNGSPRLLIKYASESISGIPSRFSGSGSGTDFTLSINSVESEDIADYYCQQSYIWPFTFGSGTKLEIK
# notes: Mouse monoclonal antibody from a hybridoma (Balb/C mouse immunised with Peptide 1-KLH)
# What was measured:
# Peptide 27 = molecular target: T1, Peptide 27 (human); assay: solid phase ELISA; biotinylated peptide on plate, antibody 2 ug/ml
# T1 peptide: Biotin-LLEDGEDFNLGDALD
# Peptide 23 = molecular target: T2, Peptide 23 (human); assay: as above
# T2 peptide: Biotin-QAQEYEALLNIKVKLEAE
# Peptide 19 = molecular target: T3, Peptide 19 (human); assay: as above
# T3 peptide: Biotin-MEQLNGILLHLESELAQT
# Peptide 21 = molecular target: T4, Peptide 21 (human); assay: as above
# T4 peptide: Biotin-SELAQTRAEGQRQAQEYE
# Peptide 15 = molecular target: T5, Peptide 15 (human); assay: as above
# T5 peptide: Biotin-DSMRNLKASLENSLREVE
# Procedure: (§1) (1) The peptides shown in Table 2 were synthesized, and biotin was added to the N-terminal side. (2) The synthesized peptides were dissolved in 80% DMSO solution and further diluted to 1 μg/ml with PBST. (3) After washing an ELISA plate three times with PBST, a biotinylated peptide was added thereto at 100 μL/well, and the plate was allowed to stand at room temperature for 1 hour to immobilize the peptide. Thereafter, the plate was washed three times with PBST, and Buffer I′ (10 mM NaH₂PO₄.2H₂O, 149.7 mM NaCl, 2.5 mM EDTA 2Na, 0.10% BSA, pH 7.0) was added thereto at 200 μL/well to prepare a plate stored at 4° C. overnight. (4) The plate was washed three times with PBST, and an antibody diluted to 2 μg/ml was added thereto at 50 μL/well, followed by shaking at room temperature for 1 hour. (5) The plate was washed three times with PBST, and an Anti-Mouse IgG POD antibody diluted about 5000 fold with Buffer I′ (10 mM NaH₂PO₄.2H₂O, 149.7 mM NaCl, 2.5 mM EDTA 2Na, 0.10% BSA, pH 7.0) was added thereto at 50 μL/well, followed by shaking at room temperature for 1 hour. (6) The plate was washed three times with PBST, TMB Mix (1-step Ultra TMB-ELISA (Thermo Scientific):3% H₂O₂: Phosphate-Citrate buffer (Sigma)=15:0.15:14.85) was added thereto at 100 μL/well, and the mixture was reacted at room temperature for 10 minutes. Thereafter, 1 M H₂SO₄ was added thereto at 100 μL/well to stop the reaction. (7) Absorbance of the reaction solution at 450 nm was measured with a plate reader.
# Peptide 9 = molecular target: T6, Peptide 9 (human); assay: as above
# T6 peptide: Biotin-IEESTTVVTTQSAEVGAA
# Procedure: as §1
# Peptide 16 = molecular target: T7, Peptide 16 (human); assay: as above
# T7 peptide: Biotin-KASLENSLREVEARYALQ
# Procedure: as §1
# Peptide 5 = molecular target: T8, Peptide 5 (human); assay: as above
# T8 peptide: Biotin-DIRAQYDELARKNREELD
# Procedure: as §1
# Peptide 4 = molecular target: T9, Peptide 4 (human); assay: as above
# T9 peptide: Biotin-LAKIMADIRAQYDELARK
# Procedure: as §1
# Peptide 13 = molecular target: T10, Peptide 13 (human); assay: as above
# T10 peptide: Biotin-LRRTVQSLEIDLDSMRNL
# Procedure: as §1
# Peptide 17 = molecular target: T11, Peptide 17 (human); assay: as above
# T11 peptide: Biotin-SLREVEARYALQMEQLNG
# Procedure: as §1
# Peptide 6 = Peptide 6 (human, biotin added to the N-terminal side); assay: as above
# Procedure: as §1
# Peptide 10 = molecular target: T12, Peptide 10 (human); assay: as above
# T12 peptide: Biotin-VVTTQSAEVGAAETTLTE
# Procedure: as §1
# Peptide 11 = molecular target: T13, Peptide 11 (human); assay: as above
# T13 peptide: Biotin-AEVGAAETTLTELRRTVQ
# Procedure: as §1
# Peptide 14 = molecular target: T14, Peptide 14 (human); assay: as above
# T14 peptide: Biotin-SLEIDLDSMRNLKASLEN
# Procedure: as §1
# Peptide 7 = molecular target: T15, Peptide 7 (human); assay: as above
# T15 peptide: Biotin-NREELDKYWSQQIEESTT
# Procedure: as §1
# Peptide 18 = molecular target: T16, Peptide 18 (human); assay: as above
# T16 peptide: Biotin-ARYALQMEQLNGILLHLE
# Procedure: as §1
# Peptide 12 = molecular target: T17, Peptide 12 (human); assay: as above
# T17 peptide: Biotin-ETTLTELRRTVQSLEIDL
# Procedure: as §1
# Peptide 3 = molecular target: T18, Peptide 3 (human); assay: as above
# T18 peptide: Biotin-APKSQDLAKIMADIRAQY
# Procedure: as §1
# Peptide 8 = Peptide 8 (human, biotin added to the N-terminal side); assay: as above
# Procedure: as §1
# [1] = molecular target: T19, fCK18 in apoptosis-induced HepG2 cell culture supernatant (human, UniProt P05783 239-397); assay: HISCL sandwich immunoassay; K18-624 magnetic microbeads capture, K18-328Fab-ALP detector; fCK18 60.73 ng/mL
# T19 construct: Natural CK18 fragment from the culture supernatant of apoptosis-induced HepG2 cells (band around 18 KDa); also called fCK18 in apoptosis-inducing cells
# T19 sequence: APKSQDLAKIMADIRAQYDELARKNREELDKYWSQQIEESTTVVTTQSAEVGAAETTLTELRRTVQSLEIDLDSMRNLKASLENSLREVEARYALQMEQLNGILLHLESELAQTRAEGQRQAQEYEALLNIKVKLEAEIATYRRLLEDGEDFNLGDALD
# Peptide 26 = molecular target: T20, Peptide 26 (human); assay: solid phase ELISA; biotinylated peptide on plate, antibody 2 ug/ml
# T20 peptide: Biotin-IATYRRLLEDGEDFNLGD
# Procedure: as §1
# Peptide 25 = molecular target: T21, Peptide 25 (human); assay: as above
# T21 peptide: Biotin-VKLEAEIATYRRLLEDGE
# Procedure: as §1
# [2] = molecular target: T19, fCK18 in apoptosis-induced HepG2 cell …; assay: HISCL sandwich immunoassay; K18-624 magnetic microbeads capture, K18-328Fab-ALP detector; fCK18 0.09 ng/mL
binder,measurement,setting,value
B1,Abs450,Peptide 27,0
same,Abs450,Peptide 23,0.02
same,Abs450,Peptide 19,0.01
same,Abs450,Peptide 21,0.01
same,Abs450,Peptide 15,0
same,Abs450,Peptide 9,-0.01
same,Abs450,Peptide 16,0.04
same,Abs450,Peptide 5,-0.01
same,Abs450,Peptide 4,0.01
same,Abs450,Peptide 13,0.01
same,Abs450,Peptide 17,1.55
same,Abs450,Peptide 6,0.01
same,Abs450,Peptide 10,0
same,Abs450,Peptide 11,0.01
same,Abs450,Peptide 14,-0.01
same,Abs450,Peptide 7,0
same,Abs450,Peptide 18,0.02
same,Abs450,Peptide 12,0
same,Abs450,Peptide 3,0.04
same,Abs450,Peptide 8,-0.01
B2,S/N ratio,[1],683
same,Abs450,Peptide 26,0.14
same,Abs450,Peptide 25,0.14
same,S/N ratio,[2],1.9
